Several values for one entry are separate records, joined by “and”; a condition that tells them apart may be missing. Equal entries are not always repeated. Entries after “also recorded” stand apart in the source; their conditions may differ.
Tests used:
[1] = system: Detroit 562 cells; assay: Adherence of rPsaA- or peptide-coated fluospheres (beads) to Detroit 562 cells; assay type: cell-based, human; conditions: for mean adherence of coated fluospheres (mean FU±SE): 3,100±500 fluospheres per well, 2 hour incubation; for mean adherence signal (n=6): 2600 fluospheres/well; for mean adherence (% CV): batch 6, dilution 1:100, 2,600 fluospheres
Protocol: (§1) Carboxylate-modified fluorospheres (Molecular Probes™, […]) coated with either recombinant PsaA (rPsaA) or PsaA synthetic peptide (P4) were evaluated for their adherence to Detroit 562 NP cells. Four different batches of PsaA beads were generated by varying the concentration of the protein solution used to coat the beads (0.9 mg/ml, 0.53 mg/ml, 5.3 μg/ml and 0.53 μg/ml). P4 and Glycine control beads were generated by using a peptide solution (0.9 mg/ml). Protein concentrations were confirmed by the Bradford test (Sigma). PsaA and peptide beads were compared at similar inocula (1640±210 beads per well) in adherence and adherence competition assays (measured as mean fluorescent units (FU±SE)).
Recombinant PsaA protein or synthetic peptides were covalently bound to carboxylate-modified FluoSpheres (Molecular Probes, Eugene, Oreg.) (505/515 nm range, yellow, 1 μm in diameter). […] The 2% fluosphere stock was vortexed for 2 minutes at full speed. A 250-μl aliquot was sonicated for 5 minutes to break clumps. The sonicated fluospheres were washed 3 times by centrifugation at 10,000 rpm for 10 minutes in 250 μl MES buffer, pH 6.0 (Molecular Probes). The negative charge in the carboxylate-modified fluospheres was activated by adding 50 μl of EDAC solution (100 mg/ml, Molecular Probes) to the washed fluospheres resuspended in 200 μl MES. The fluospheres were incubated for 30 minutes RT with gentle rotation. A 250-μl volume of rPsaA (1 mg/ml) or peptide (2 mg/ml) resuspended in MES buffer was added to each fluosphere pellet. Suboptimal concentrations of rPsaA (900, 530, 5.3 and 0.53 μg/ml) were also used to generate partially coated fluospheres. Peptides were dissolved as 1 mg in 50 μl of 10% acetic acid followed by addition of 450 μl of MES buffer, pH 6.0. The 500-μl fluosphere suspension was incubated in the dark over night at room temperature with horizontal rotation (150 rpm). The remaining reactive sites were blocked by addition of a 50-μl volume of 1 M solution of glycine, followed by a-30-minute incubation at room temperature with horizontal rotation. The fluosphere suspension was then washed with 500 μl PBS, 50 mM, pH 7.2-7.4 three times by centrifugation at 10,000 rpm for 10 minutes. The first supernatant of the first wash was saved for protein determinations using the microtiter microdilution method of Bradford (Bio-Rad Laboratories, Calif.). The labeled fluosphere pellet was resuspended in 500 μl of PBS, 50 mM, pH 7.2-7.4. Labeled fluospheres were stored in the dark in 100-μl aliquots at 4° C. for up to 4 months. The peptides were stored in powder form at 4° C. under Dryerite desiccant. The resuspended peptides were stored at 4° C. for 6 weeks and for long term storage at −70° C. Fluospheres were counted by limiting dilution using a fluorometer (FLX-600, BioTek) with 485/520 nm excitation/emission wavelength and comparison to a calibration curve previously generated against hemacytometer counts.
Confluent monolayers of Detroit 562 cells grown in 96-well tissue culture plates for 6 days were washed once with 130 μl/well of PBS buffer+0.5% BSA (Sigma cat #A2153, Fraction V purified by alcohol precipitation). The entire outer perimeter of the microtiter plate was not used for adherence assays due to edge effect and lack of confluent growth in these wells. An 80-μl volume per well of PBS buffer+1% BSA and 20 μl per well of diluted fluosphere suspension (to yield ˜3100±500 fluospheres in a 20-μl volume) were added to the washed monolayers. The diluted fluosphere suspension was sonicated for 3 minutes prior to addition to the center of the wells. […] The sides of the plates were then tapped gently to mix. […] Following incubation, plates were washed 5 times with 130 μL/well of PBS+0.5% BSA. The liquid was removed after each wash with a multi-channel aspirator (Costar) and moderate vacuum. The plate was allowed to dry before reading in the fluorometer (485/520 nm). […]

[2] = system: Detroit 562 cells; assay: Competitive inhibition of adherence of rPsaA-coated fluospheres to Detroit 562 cells; assay type: cell-based, human; conditions: for percent reduction in adherence of rPsaA-coated beads: rPsaA-coated beads 0.9 mg/ml batch, ~1,640 beads per well
Protocol: as §1
(§2) Homologous competitive inhibitions with 0.5 to 10 μg per well of rPsaA protein or 5 to 20 μg per well of each peptide were performed to determine the specificity of the adherence for rPsaA-coated fluospheres or for each of the three peptide-coated fluospheres. Heterologous competitive inhibitions with each peptide (10 μg per well) were performed to determine which peptide blocked the adherence of whole PsaA-coated fluospheres to the Detroit 562 cells. Absorption of PsaA-specific antibodies was performed by incubation (2 hours at ambient room temperature with rotation, 100 rpm) of 500 μl (1:8 dilution) of the serum 7051 with nitrocellulose strips (2.5×0.5 cm), previously impregnated with rPsaA protein (1.8 mg/ml) and allowed to dry at 37° C. for 1 hour. Strips were replaced every 2 hours for a total of 3 changes. All antibody absorptions were performed in PBS (10 mM, pH 7.2) supplemented with 1% (weight/volume) BSA as a non-specific blocker. Immunoglobulin G (IgG) concentrations (μg/ml) were measured as previously described (Tharpe, Romero-Steiner) after each absorption step to monitor the decline of anti-PsaA antibodies.

[3] = system: Detroit 562 cells; assay: Homologous competitive inhibition of adherence of rPsaA- or peptide-coated fluospheres to Detroit 562 cells; assay type: cell-based, human; conditions: for percent reduction in adherence of P4-coated beads: ~1,640 beads per well
Protocol: as §1, §2

[4] = system: HL-60, RAW 264.7 and Detroit 562 cells; assay: P4 activation of phagocytes and epithelial cells (cytokine release, TEM); assay type: cell-based
Protocol: Cell suspensions of HL-60 (promyelocytes) and RAW 264.7 (monocytes), and Detroit 562 cells (nasopharyngeal epithelial cells) were centrifuged at 1000 rpm-10 min and the pellet was resuspended in 1 ml PBS buffer. To this, P4 solution (1 mg/ml) was added at 10% (v/v) concentration, mixed by inverting few times and incubated at 37° C., 5% CO2 for 15 min (HL-60 and RAW) or 30 min (Detroit 562). After incubation, the cells were centrifuged again and the supernatant was analyzed for cytokines and the cell pellet was washed once in PBS, fixed in 2% glutaraldehyde and processed for transmission electron microscopic (TEM) analysis.

[5] = system: Detroit 562 cells; assay: Competitive inhibition of adherence of rPsaA-coated fluospheres to Detroit 562 cells; assay type: cell-based, human; conditions: competitor 100 μg (so in the source)
[6] = homologous competitor 5.0 μg/well
[7] = homologous competitor 10 μg/well
[8] = P4 solution (1 mg/ml) at 10% (v/v), 15 or 30 min

“LFVESSVKRRPMKTVSQDTNIPIYAQIF [P4, non-branched synthetic peptide, PsaA amino acid residues 251 to 278 with DD changed to KR]” was tested, and the “mean adherence of coated fluospheres (mean FU±SE)” value [1] was 20,317±448 FU, the “adherence of P4-coated beads (FU±SE)” value ([1]; beads coated with 0.9 mg/ml peptide solution, 1640±210 beads per well) was 19,340 FU and the “inhibition of the binding of PsaA protein to Detroit 562 cells” value [2] was no less than 95%. For the same molecule, the “percent reduction in adherence of rPsaA-coated beads” value ([2]; competitor 5.0 μg/well) was 23% and 18.5%, the “percent reduction in adherence of rPsaA-coated beads” value ([2]; competitor 10 μg/well) was 57.6% and the “percent reduction in adherence of rPsaA-coated beads” value ([2]; competitor 20 μg/well) was 95% and 95.9%. The “inhibition of rPsaA-fluosphere adherence, heterologous competition” value ([2]; peptide 10 μg/well) was 57.6%, the “inhibition of rPsaA-fluosphere adherence, heterologous competition” value ([2]; peptide 20 μg/well (6.2×10^−2 mM)) was 95.9% and the “percent reduction in adherence of P4-coated beads” value ([3]; competitor 5.0 μg/well) was 89% and 89.4%. For the same molecule, the “percent reduction in adherence of P4-coated beads” value ([3]; competitor 10 μg/well) was 88% and 87.6%, the “percent reduction in adherence of P4-coated beads” value ([3]; competitor 20 μg/well) was 89% and 88.9% and the “percent reduction in adherence of homologous coated fluospheres” value [3, 6] was 89.4%. For the same molecule, the “percent reduction in adherence of homologous coated fluospheres” value [3, 7] was 87.6%, the “percent reduction in adherence of homologous coated fluospheres” value ([3]; homologous competitor 20 μg/well) was 88.9% and the “bacterial adherence to P4 treated NP cells” value ([4]; Detroit 562 NP cells exposed to P4 solution) was “enhancement in bacterial adherence”. The EGF release/production [4, 8] was “brings down EGF production; also recorded: down regulated”, the FGFbasic release/production [4, 8] was “up regulated” and the IL8 release/production [4, 8] was “down regulated”. The “cell morphology by TEM and light photomicrographs” value [4, 8] was “phagocytic activation” and the “reduction in FU of PsaA-coated beads” value [5] was 68%.

B1: rPsaA: purified recombinant pneumococcal surface adhesin A, non-lipidated, donated by Aventis-Pasteur (protein)
chain: CASGKKDTTSGQKLKVVATNSIIADITKNIAGDKIDLHSIVPIGQDPHEYEPLPEDVKKTSEADLIFYNGINLETGGNAWFTKLVENAKKTENKDYFAVSDGVDVIYLEGQNEKGKEDPHAWLNLENGIIFAKNIAKQLSAKDPNNKEFYEKNLKEYTDKLDKLDKESKDKFNKIPAEKKLIVTSEGAFKYFSKAYGVPSAYIWEINTEEEGTPEQIKTLVEKLRQTKVPSLFVESSVDDRPMKTVSQDTNIPIYAQIFTDSIAEQGKEGDSYYSMMKYNLDKIAEGLAK
B1 was tested, and the “mean adherence signal (n=6)” value ([1]; 20 min incubation) was 2,315 FU, the “mean adherence signal (n=6)” value ([1]; 140 min incubation (plateau starts)) was 16,597 FU and the “mean adherence signal (n=6)” value ([1]; 180 min incubation) was 17,498 FU. The “mean adherence of coated fluospheres (mean FU±SE)” value [1] was 44,195±2,648 FU, the “mean adherence (% CV)” value ([1]; day 1 after labeling) was 30,105 FU and the “mean adherence (% CV)” value ([1]; day 60 after labeling) was 30,595 FU. The “adherence of PsaA beads (FU±SE)” value ([1]; beads coated with 0.53 μg/ml rPsaA, 1640±210 beads per well) was 5,892 FU, the “adherence of PsaA beads (FU±SE)” value ([1]; beads coated with 5.3 μg/ml rPsaA, 1640±210 beads per well) was 12,788 FU and the “adherence of PsaA beads (FU±SE)” value ([1]; beads coated with 0.53 mg/ml rPsaA, 1640±210 beads per well) was 16,748 FU. For the same molecule, the “adherence of PsaA beads (FU±SE)” value ([1]; beads coated with 0.9 mg/ml rPsaA, 1640±210 beads per well) was 47,875 FU, the “inhibition of the adherence of PsaA-coated fluospheres, cold chase” value ([2]; non-fluorescent spheres coated with PsaA protein) was “up to 31%” and the “reduction of adherence of rPsaA fluospheres by whole recombinant protein” value ([3]; 0.5 to 10 μg/well) was “unable to significantly reduce”. The “reduction of adherence of rPsaA-coated fluospheres” value ([3]; additional concentrations 0.125 to 10.0 μg/well vs 3 μg/well) was “did not result in any further reduction”, the “percent reduction in adherence of homologous coated fluospheres” value ([3]; homologous competitor 0.5 μg/well) was −5.2% and the “percent reduction in adherence of homologous coated fluospheres” value ([3]; homologous competitor 1.0 μg/well) was 9.8%. The “percent reduction in adherence of homologous coated fluospheres” value ([3]; homologous competitor 2.0 μg/well) was 17.0%, the “percent reduction in adherence of homologous coated fluospheres” value [3, 6] was 13.7% and the “percent reduction in adherence of homologous coated fluospheres” value [3, 7] was 11.4%.
